Measurements published in the nanobody polyreactivity screen of Harvey et al. (2022).

Assay: yeast display, Sf9 membrane polyspecificity reagent, FACS + sequencing; frameworks hold sequencing errors
In short: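 Genes from sorted yeast were amplified by colony PCR, read by MiSeq 2 × 250 sequencing and filtered on CDR length. These cells carried a synthetic nanobody library in Saccharomyces cerevisiae BJ5465 and were sorted by FACS into low and high (top ~1%) gates on anti-HA and streptavidin fluorescence. Polyreactivity is labelled according to the gate of origin.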

| Sequence | polyreactivity (PSR sort gate) |
| --- | --- |
| QFQLVESVGGLVQAGGSLRLSCAASGSTFVRNELGWYRQAPGKERELVAANSVDGSSTYYADSVKGRFTISRDNAKNTVYLQINSLKPEDTAVYYCNADWDYRDFYDITYDYWGQGTQVTVSS | low polyreactivity |
| QFQLVESVGGLVQAGGSLRLSCAASGTTIPSYAMGWYRQAPGKERELVASITYSDGTTRYADSVKGRFTISRDNAKNTVYLQMNSLKPEDTAVYYCNAVYYREGMDYWGQGTQVTVSS | low polyreactivity |
| QFQLVESVVGLVQAGGSLRLSCAASGTTFGVNDMRWYRQAPGKEREFVADITTSGGSTYYADSVKGRFTISRDNAKNTVYLQMNSLKPEDTAVYYCAADLWPFEHDDYWGQGTQVTVSS | low polyreactivity |
| QFQLVETGGGLVQAGGSLRLSCAASGRTFRFNAMGWYRQAPRKEREFVAAITSGGGTYYADSVKGRFTISRDNAKNPVYLQMNCLKPEDTAVYYCAAPRQYYLMVYWGQGTQVTVSS | low polyreactivity |
| QFQRVESGGGLVQAGGSLRLSSAASASIFSVYTMGWSRQAPGKERELDAAISTGGGSKYYADSVKGRFTISRDNAKNTVYLQMKSLKPEDTSVYYCGTDYGWPPSYWYDSFGQGTQVTVSS | low polyreactivity |
| QGHLVESLGGLVQAGGSLRLSCAASGRIIGVYAMGWSRQAPGKERELVAAISEGGGSTNYADSVKGRFTISRDNSKNTVYLQMNSLKPEDTAVYYCNADADEYRDYHDYDYWGQGTQVTVSS | low polyreactivity |
| QGPHVESGGGLVQAGGSLRLSCAASGSTFYNYAMGWYIQAPGKEREFVATISFSGGSTYYADSVKGRFTISRDNAKNTVYLQMNSLKPEETAVYYCAARALTRKATGYYLTDYWGQGTQVTVSS | high polyreactivity |
| QGQHVESGGGLVQAGGSLRLSCAASGFTFAHNAMGWDRQAPGKETDFVAAITSRGGSTYYADSVKGRFTISRDNAKNSVYFQMYSPNPEDTAVYYCAADDYIYTVYSYTYQYWGQGTHVTVSS | low polyreactivity |
| QGQHVESGVGLVQAGGSLRLSCAASVFMFESNAMGWYRQAPGKERELVAAITSAGRTYYADSVKGRFTISRDNAKNTVYLQMNSLKPEETAVYYCNAPRSRYRYDYWGQGTQVTVSS | high polyreactivity |
| QGQLEESCGGLVQAGARLRISCEASGRTFRFYTMGGYRPAPGKEMELVAAISSNTGTTYADSVKGRFTISRDNAKNTVYLQMNSLKQEDTAVFFCAARVRRQYYNRPYYYWGQGTQVTVSS | high polyreactivity |
| QGQLEESGGGLVQAGGSLRLSCAASGRTFGPYAMGRYRQAPGKERELVAAIRSAGSTYYADSVKGRFTISRDNAKNTVYLQMISLKPEDTAVYYCADDIARHLTGFAYYRLDYWGQGTQVTVSS | low polyreactivity |
| QGQLEESGGGLVQAGGSLRLSCAASGSIFTLYAMGWYRQAPGKERELVAAITRSGGSTYYADSVKGRFTISRDNAKNTVYLQMNSLKPEDTAVYYCAADKAPYSTEGDYWGQGTQVTVSS | high polyreactivity |
| QGQLEESGGGLVQAGGSLRLSCPASGYILGGNAMGWYRQAPGKERELVARIRVSSGSTYADSVKGRFTISRDNAKNTVYLQMNSLKPEDTAVYYCAASISSRYRYTAYDYWGQGTQVTVSS | high polyreactivity |
| QGQLGDSGGGLVQAGGSLRLSCAASGLTFWGKVMGWSRPAPGKERELVAAITSGGSTYYADSVKGRFTISRDNAKNTVFLQMNSQKPEDTAVYYCATAFYYSYSEYYYWGQGTQVTVSS | high polyreactivity |
| QGQLLESGGGLVQAGGSLRLSCAASGRTFRSYAMGWYRQAPGKESELVAASSQRGGSSFYADSVKGRFTISRDNAKNSVYLQMNSLKPEDTAVYYCANPVRSGYDYWGQGSQVTVSS | high polyreactivity |
| QGQLVDSGGGLVQAAGSLRLSCDASGRTFVYNDMGWYRQAPGKERELVATISVSGCSTYYADSVKGRFTISRDNAKNTVYLQMISLKPEDTAVYYCAARRTWYEDHDYWGQGTQVTVSS | low polyreactivity |
| QGQLVDSGGGLVQAGGSLRLSCAASGSIVRPNAMGWYRPAPGKEREFVAAITSSSGPTYYADSVKGRFTISRDNAKNTVYLQMNSLKPEDTAVYYCAAKYTSRSYKYDYWGHGTQVTVSS | high polyreactivity |
| QGQLVESCGGLVQAGGSLRLSCAASGRTFYYYAMGWYRQAPRKERELVAAMTSGGRTNSADSVKGRFTSSRDKATNTDSLQMNSLKPEDTAVYYCAKPPYSQYEFDYWGQGTQVTVSS | high polyreactivity |
| QGQLVESGGALVQAGGSLRLICAASGRTFAAYSMGWYRQAPGKERELVAAISIGGSTNYADSVKVRFTISRDNAKNSVYLQMNSLKPEDSAVYYCAAPGRRYLRARIRYEYWGQGTQLTVSS | high polyreactivity |
| QGQLVESGGALVQAGGSLRLSCAASGRILRYYAMGWNRQAPGKERELVAVITSSDGSTYYADSVKGRFTISRDNAKNTVYLQQNSLKPEDTAVDYCAAAPLWRVASWWDPYRRYDYWGQGTQVTVSS | low polyreactivity |
| QGQLVESGGCLVQAGGSLRLSCDASGFIFTSYAMGWYRQAPGQEWELVAVITASGGSTYYADSVKGRFTISRDNAKNTVYLQMNSLKPEDTAVYYCNRYYQSYYGWTGPYGYWGQGTQVTVSS | high polyreactivity |
| QGQLVESGGGIVQAGVSLRLSCAASGSIFTANAMGWYRQAPGKVRELVAAISRSGGRTYYADSVKGRFTISRDNAKNTVYLQMNSLNPEDTAVYYCNVGSFNTSGYDYWGQGTQVTVSS | high polyreactivity |

| Sequence | polyreactivity (PSR sort gate) |
| --- | --- |
| QGQLVESGGGLGQAGGSLRLSCAASGSTSGIYAMGWYRQAPGKERELVAAIDTSGGSSYADSVKGRFTISRDNAKHTVYLQMNSLKPEDTAVYYCAKPFCSNSWSHGYWGQGTQVTVSS | low polyreactivity |
| QGQLVESGGGLVQAGGSLRFSCAASGRIFSVYDMGWYRQAPGTERELVAAIDTSDGSTNYADSVKGRFTISRDNAKNSVYLQMNSLKPEDTAVYYCNATDSYVPFDYWGQGTQVTVSS | low polyreactivity |
| QGQLVESGGGLVQAGGSLRLRCAASGFTFAVNTMGWYRQAPVKERELVAAITASGGSTHYADSVKGRFTISRDNAKNNVYLQMNSLKPEDTAVYYCAARPRLYQYYYWGQGTQVTVSS | high polyreactivity |
| QGQLVESGGGLVQAGGSLRLSCAAAGYTLGVNAMGWSRQAPGKERELVAAINYIDTRTYYAASVKGRFTISRDNAKNTVYLQMNSLNPEDTAVYYCAARPYVPWVKRYYYWGQGTQVTVSS | low polyreactivity |
| QGQLVESGGGLVQAGGSLRLSCAASGFTFSPYAMGSYRQAPGKERELVAVISGGGSTYYADSVKGRFTISRDNAKNTVYLQMNSLKPEDTAVYYCAKRFYRSYYWGQGTQVTVSS | high polyreactivity |
| QGQLVESGGGLVQAGGSLRLSCAASGGIFGNYAMGGYRQAPGKERELVAVIDSSDGSTHYADSVKGRFSISRDNAKTTVYLQINSLKAEDTAVYYCATLGFWNYWTFDYWGQGTQVTVSS | low polyreactivity |
| QGQLVESGGGLVQAGGSLRLSCAASGLTFKGYAMGWYRQAPGKERELVAAITWDTGSTYYADSVKGRFTISRDNAKNTVYLQMNSLKPEDTAVYYCAAVGSTTTGVRRRGYWGQGTQVTVSS | high polyreactivity |
| QGQLVESGGGLVQAGGSLRLSCAASGNTFNVYAMGWYRQAPGKARELVAAITLSGGSTYYADSVKGRFTISRDNSKNTVYLQMNSLKPEDTAFYYCNAEEDGTDYDYWGQGTQVTVSS | low polyreactivity |
| QGQLVESGGGLVQAGGSLRLSCAASGRIFTYYAMGWYRQAPGKERELVAAISWSGGSTYYADSVKGRFTISRDNAKNTVYLQMNSLKPEDTAVYYCAAVGYAGLPYGLRPNNSGYWGQGTQVTVSS | low polyreactivity |
| QGQLVESGGGLVQAGGSLRLSCAASGRTFGINAMGWYRQAPGKERELVAVISFGDGGTYYADSVKGRFTISRDNAKNTVYLQMNSLKPEDTAVYYCATDYQSTSVWGGHFVINPYDYWGQGTQVTVSS | low polyreactivity |
| QGQLVESGGGLVQAGGSLRLSCAASGRTFGYYAMRWYRQARGKERELVAVITRSGGTTYYADSVKGRFTISRDNAKNTVYLQMKSLKPEDTAVYYCHPAYYTGMYWGQGTQVTVSS | high polyreactivity |
| QGQLVESGGGLVQAGGSLRLSCAASGRTFRGNTMGWYRQAPGKERELVATISSRSSSTYYADSVKGRFTISRDNAKNTVYLQMHSLKPEDTAVYYCAVTNPLVRSGYSRYFGRYDYWGQGTQVTVSS | high polyreactivity |
| QGQLVESGGGLVQAGGSLRLSCAASGSIFDTYAMGWYRQAPGKERELVAAITRRAGSTYYADSVKGRFTISRDHAKNTLYFQMNSLKPEETSVYYCAAGYDRYPGGIDEYWGQGTQVTVSS | low polyreactivity |
| QGQLVESGGGLVQAGGSLRLSCAASGSIVFYYGMGWYRQAPGKERELVAAITWSGDSPYDADSVKGRFTISRDNAKNTVYLQLNSLKPEDTAVYYCNADQTSYYYPGNYDYWGQGTQVTVSS | high polyreactivity |
| QGQLVESGGGLVQAGGSLRLSCAASGSMFYRYAMGWYRQAPGKERELVAVITSAGGTHYADSVKGRFTISRDNAKNTVYLQMTSLKPEDTAVDYCARRGYYYDYWGEGTQVTVSS | high polyreactivity |
| QGQLVESGGGLVQAGGSLRLSCAASGSTFAYYAMGWYIPAPGKERELVAAITSRGGSTYYADSVKGRFTISRDNAKNTVYLQMNSLKPEDTAVYYCAAVTRNQGSYRYYYWGQGTQVTVSS | high polyreactivity |
| QGQLVESGGGLVQAGGSLRLSCAASGSTFAYYAMGWYRQAPGKERELVAAINTTTGSTFYADSVKGRFTISRDNAKNTVYLQMNSLKPEDTAGYYCAAGVTGPSDDYDYWGQGTQVTVSS | low polyreactivity |
| QGQLVESGGGLVQAGGSLRLSCAASGSTFPPYRMGWYRQAPGKERELVAAITWRGGRTYYADSVKGRFTISRDNAKNTVYLQMNSLKREDTAVYYCAADYPYQYGRYAGSPGAGRYYWGQGTQVTVSS | high polyreactivity |
| QGQLVESGGGLVQAGGSLRLSCAPSGFIFKFYAMGWYRQAPGKESELVAAITSSGGSTNYADSVKGRFTISRDNAKNTVYLQMISLKPEDTAVSYCAAQFPGVYYYIYDYWGQGTQVTVSS | high polyreactivity |
| QGQLVESGGGLVQAGGSLRLSCAPTGRTFAHYARGWYRQAHWTERELVAGITRRAGSTYYADSVKGRFTISRDNAKHSVYLHMNSLKPEETEVYYCAAPRDWDAGDYWGQGTQVTVSS | high polyreactivity |
| QGQLVESGGGLVQAGGSLRLSSAASGSTFVGNAMGWYRQAPGKEREMVATISNSGGRTYYADSVKGRFTISRDNAKNTVYLQMTSLKPEDTAVYDCAADHPAFGPGYSFDYWGQGTQVTLSS | low polyreactivity |
